The supplement of paper PMC10126150
± gives the standard deviation of the averaged measurements.

System: ATP
Test: switch fluorescence ratio, 500 uM ATP over buffer (Cy3 cluster intensity, sum of 5 cycles each) (fold (ratio)); higher = stronger signal-on switching upon ATP binding; sequences stand for … in TCGTCGGCAGCGTCAGATGTGTATAAGAGACAGTTTTTTTTTTTTTTTTTTTTTTTTT…TC
Conditions: aptamer strand: ATP DNA aptamer (quencher-CACCTGGGGGAGTATTGCGGAGGAAGG + anchor), 100 nM annealed; ATP concentration: 500 uM
Method in brief: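 Values give the fluorescence ratio for each switch-domain sequence, averaged from per-cluster ratios of summed target-cycle to summed buffer-cycle Cy3 intensity. The Cy3-labelled switching-strand clusters sat on a modified Illumina MiSeq flow-cell, were annealed to 100 nM quencher-labelled ATP aptamer, and were imaged in selection buffer, then after 15 min with 500 uM ATP at 22 °C. Five cycles ran with NaOH stripping and re-annealing between them, and clusters outside 100-1000 RFU were excluded.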
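Note: ATP exposure 15 min at 22 °C before imaging.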

Sequence	switch fluorescence ratio
TATTAGTTAA	0.992 ± 0.019
TATTATGCGA	1.04 ± 0.022
TATTATGTCA	1.01 ± 0.043
TATTATTTTC	1.03 ± 0.046
TATTCAGGGA	1.02 ± 0.02
TATTCAGTCG	0.9927 ± 0.0051
TATTCATCGT	0.9932 ± 0.0075
TATTCTAATT	1.004 ± 0.006
TATTCTCGAC	1.01 ± 0.013
TATTCTGCTA	1.02 ± 0.024
TATTCTTTTT	0.968 ± 0.04
TATTGAAATT	1.05 ± 0.022
TATTGACAA	1.02 ± 0.019
TATTGAGAAG	0.987 ± 0.025
TATTGAGAGT	0.991 ± 0.032
TATTGAGATA	1.01 ± 0.04
TATTGAGGAG	1.01 ± 0.011
TATTGATATT	1.06 ± 0.14
TATTGATTTA	1.02 ± 0.042
TATTGCCGGG	0.985 ± 0.036
TATTGCGGGG	1.2 ± 0.42
TATTGGAGAT	1 ± 0.021
TATTGGCTAA	0.987 ± 0.034
TATTGGGGAG	1.13 ± 0.29
TATTGGGGAT	1.06 ± 0.043

Sequence	switch fluorescence ratio
TATTGGGGGT	1.01 ± 0.044
TATTGGGTCA	0.996 ± 0.03
TATTGGTTAA	0.974 ± 0.021
TATTGGTTCG	1.03 ± 0.027
TATTGTAACC	1.03 ± 0.016
TATTGTAATG	1.04 ± 0.0081
TATTGTGTGT	0.987 ± 0.022
TATTGTTGAC	1.037 ± 0.01
TATTTAACTT	1.014 ± 0.005
TATTTAAGTT	1.03 ± 0.013
TATTTACGGG	0.9931 ± 0.0065
TATTTAGTAT	0.99 ± 0.045
TATTTAGTCT	1 ± 0.026
TATTTATGTT	0.995 ± 0.031
TATTTCATAT	1 ± 0.013
TATTTCGGGA	0.994 ± 0.026
TATTTCGGTT	1.002 ± 0.0096
TATTTCTGTG	1.02 ± 0.034
TATTTGAGA	1.01 ± 0.019
TATTTGATGG	0.992 ± 0.021
TATTTGGGGG	1.01 ± 0.029
TATTTGGGTA	0.987 ± 0.026
TATTTTAGAA	0.996 ± 0.016
TATTTTAGGG	0.985 ± 0.029
TATTTTCATT	0.999 ± 0.015

Sequence	switch fluorescence ratio
TATTTTCGGA	0.97 ± 0.039
TATTTTGAGT	0.989 ± 0.012
TATTTTGGAG	0.985 ± 0.035
TATTTTGGCC	1.02 ± 0.04
TATTTTGTCT	1.1 ± 0.13
TATTTTGTGT	0.998 ± 0.036
TATTTTTCCG	1.03 ± 0.012
TATTTTTGTG	0.985 ± 0.011
TATTTTTTAT	1.022 ± 0.0017
TATTTTTTTA	0.997 ± 0.039
TCAAAACGGC	1.07 ± 0.15
TCAAAAGGGG	1.06 ± 0.092
TCAAACAGTG	1.02 ± 0.039
TCAAAGATAA	0.98902 ± 2.8e-05
TCAAAGCCCT	1.03 ± 0.03
TCAAATCGTT	0.992 ± 0.0074
TCAAATGGCG	0.923 ± 0.023
TCAAATTAGA	0.966 ± 0.026
TCAACAGGA	1.01 ± 0.033
TCAACCTACG	1.36 ± 0.17
TCAACGGGTA	1.01 ± 0.021
TCAACGTCAG	0.9872 ± 0.0048
TCAAGAGATG	1 ± 0.015
TCAAGATTAT	0.994 ± 0.027
TCAAGCCGAG	1.08 ± 0.062

Sequence	switch fluorescence ratio
TCAAGGAGGT	1.01 ± 0.13
TCAAGGCCTG	1.01 ± 0.042
TCAAGGGTCC	0.996 ± 0.07
TCAAGTAAAG	1.14 ± 0.23
TCAAGTGTTT	0.993 ± 0.015
TCAAGTTTTC	0.987 ± 0.034
TCAATCAGGT	1.032 ± 0.0019
TCAATCGACA	1 ± 0.041
TCAATCGTTG	1.05 ± 0.016
TCAATCTAAC	1.35 ± 0.55
TCAATGGGGC	0.979 ± 0.044
TCAATGGGTA	0.991 ± 0.021
TCAATGGTAA	0.97 ± 0.096
TCAATGGTTA	0.978 ± 0.014
TCAATGTGCG	1.013 ± 0.01
TCAATTCTGA	1.002 ± 0.0075
TCACAAATAA	0.993 ± 0.043
TCACAAATGA	1.013 ± 0.0077
TCACAAGTTG	1.01 ± 0.019
TCACAGTTTT	0.983 ± 0.02
TCACATGTGG	1.03 ± 0.044
TCACATTAAG	1.01 ± 0.037
TCACATTTGG	1.03 ± 0.045
TCACATTTTA	0.995 ± 0.04
TCACGCCTTT	1.05 ± 0.033

Sequence	switch fluorescence ratio
TCACGGGCAG	0.978 ± 0.012
TCACGGGGTT	1.01 ± 0.039
TCACGGTGTC	1.11 ± 0.026
TCACGTGTCA	0.9999 ± 0.0089
TCACGTTAAT	1.2 ± 0.058
TCACGTTGGG	0.9989 ± 0.0094
TCACTCATTG	0.9975 ± 0.0014
TCACTGAGCT	1.05 ± 0.034
TCACTGGGGA	0.995 ± 0.03
TCACTTAATA	0.994 ± 0.014
TCAGAATGGG	0.9833 ± 0.0047
TCAGACAGTT	0.987 ± 0.0042
TCAGACTTGC	1 ± 0.035
TCAGAGACCC	1.006 ± 0.009
TCAGATATTG	0.992 ± 0.04
TCAGATTGGC	1.04 ± 0.12
TCAGCCTAGG	1.02 ± 0.023
TCAGCGTGGG	1.04 ± 0.054
TCAGCTGCAA	4.21 ± 0.32
TCAGGAGGGC	0.999 ± 0.016
TCAGGAGTTT	1.04 ± 0.011
TCAGGATGTT	0.987 ± 0.026
TCAGGATTAG	1.02 ± 0.02
TCAGGATTGT	0.967 ± 0.031
TCAGGGACCG	1.03 ± 0.026

Sequence	switch fluorescence ratio
TCAGGGAGTT	0.969 ± 0.015
TCAGGGATT	1.01 ± 0.057
TCAGGGCATG	1.04 ± 0.043
TCAGGGCTGT	0.994 ± 0.029
TCAGGGGAAC	1.06 ± 0.07
TCAGGGGCCC	1.07 ± 0.084
TCAGGGGGAT	1.02 ± 0.028
TCAGGGGGGA	1 ± 0.04
TCAGGGGTTT	1.3 ± 0.53
TCAGGGTAGG	1.04 ± 0.033
TCAGGGTCAG	1.007 ± 0.0063
TCAGGGTGC	1.204 ± 0.0036
TCAGGGTGTC	1.33 ± 0.17
TCAGGGTGTG	1.019 ± 0.0067
TCAGGTGGAG	1.03 ± 0.041
TCAGGTGTGA	1.27 ± 0.025
TCAGGTGTGT	1.36 ± 0.11
TCAGGTTTTG	0.98 ± 0.013
TCAGTAACGT	1.02 ± 0.013
TCAGTAAGTT	0.995 ± 0.021
TCAGTACGAC	1.2 ± 0.021
TCAGTAGTGA	1.06 ± 0.051
TCAGTATAGG	1.01 ± 0.021
TCAGTATTTT	1.018 ± 0.0047
TCAGTCAAGG	0.9745 ± 0.0044

Sequence	switch fluorescence ratio
TCAGTCATCT	1 ± 0.013
TCAGTGAAAC	0.988 ± 0.021
TCAGTGTTTT	1 ± 0.04
TCAGTTTTTC	1.013 ± 0.0022
TCATAAAACC	1.09 ± 0.11
TCATAAGGGC	1.01 ± 0.12
TCATACGTCG	1.03 ± 0.036
TCATAGGGTG	1.03 ± 0.1
TCATATTCTA	0.9849 ± 0.0019
TCATATTGAT	0.984 ± 0.051
TCATATTGCG	0.983 ± 0.019
TCATCAGTCT	0.995 ± 0.039
TCATCCTAGC	1.19 ± 0.062
TCATCGGGGT	0.994 ± 0.023
TCATCTACAG	1.02 ± 0.013
TCATCTCTGG	0.992 ± 0.024
TCATCTTGTC	1.01 ± 0.04
TCATGAAAAG	0.997 ± 0.013
TCATGAACAT	1.001 ± 0.0082
TCATGAAGGA	0.964 ± 0.018
TCATGACCCA	1.03 ± 0.018
TCATGATGTA	0.9848 ± 0.0061
TCATGGAGGT	0.96 ± 0.03
TCATGGGAGA	0.984 ± 0.04
TCATGGGCCG	1.33 ± 0.43

Sequence	switch fluorescence ratio
TCATGGTACG	1.06 ± 0.022
TCATGGTCCC	1.02 ± 0.018
TCATGGTTG	1.01 ± 0.01
TCATGTACCG	1.05 ± 0.044
TCATGTGCGG	0.9639 ± 0.0022
TCATTAAGGT	0.995 ± 0.03
TCATTAGGGG	0.994 ± 0.041
TCATTATTCG	0.985 ± 0.027
TCATTTCGA	0.988 ± 0.02
TCATTTGGAA	0.99 ± 0.025
TCATTTGTTG	1.01 ± 0.035
TCATTTTTGC	0.979 ± 0.052
TCCAAAGAGA	0.97 ± 0.039
TCCAAAGAGG	0.997 ± 0.018
TCCAACTCCA	1.11 ± 0.0039
TCCAAGTGTG	1.03 ± 0.021
TCCAATTGCG	0.953 ± 0.021
TCCACATCAA	1.197 ± 0.0086
TCCACGTTGG	1.01 ± 0.0067
TCCAGAAAGG	1.014 ± 0.0031
TCCAGATAGG	0.997 ± 0.048
TCCAGGGCGG	1.06 ± 0.022
TCCAGGGGGT	2.41 ± 0.044
TCCAGGTAGT	1.594 ± 0.012
TCCAGGTGTG	2.77 ± 0.42
